Laboratory results as given in article doi:10.1101/346296.

What was measured:
[1] = biological target: WT nucleosomal array (recombinant Xenopus laevis histone octamers on 601-177-12 or 601-177-36 DNA) (Xenopus laevis); assay: AUC
[2] = biological target: WT nucleosomal array with Sir2/4 complex added beforehand (S. cerevisiae | Xenopus laevis) (UniProt P06700); assay: AUC

| Substance | stoichiometry N (molecules of Sir3 per array) [1] | stoichiometry N (molecules of Sir3 per array) [2] | stoichiometry N (Sir2/4 per nucleosome) [1] | stoichiometry N (complexes bound per array) [1] | stoichiometry N (molecules of Sir2/4 per array) [1] |
| --- | --- | --- | --- | --- | --- |
| FLAG-tagged Sir3 protein (from UniProt P06701 1-978) (natural protein) | 22 | 22 | – | – | – |
| TAP-tagged Sir2/4 complex (from UniProt P06700;P11978) | – | – | 1 | 4 | 11 |
